“Also recorded” adds a separate entry of the source. Residues, ends and D or L forms follow the SMILES beside them.

The test system of data set [1] is developing rat cortical neurons. The data set can be described thus: Incubation of developing rat cortical neurons with peptide (toxicity, neuron number). Conditions: 1 μM peptide, versus control developing rat cortical neurons (FIG. 4).
The target of data set [2] is T1, SH3 domain of IB1 (MKK7 binding) (Homo sapiens, UniProt Q9UQF2).
T1 construct: the SH3 domains of IB1 and IB2 were subcloned using PCR into the pGEX-4T1 vector in frame with the GST; GST (N); made in house; host or cells: E. coli
T1 sequence (Q9UQF2 488-549 limits assumed): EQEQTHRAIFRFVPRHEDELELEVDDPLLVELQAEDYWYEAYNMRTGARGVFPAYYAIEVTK
The data set can be described thus: Pull-down of 35S-labelled MKK7 on GST-SH3 domain of IB1. As to conditions: GST-SH3 domain of IB1, 35S-labelled MKK7 (FIG. 2). As to the method: (§1) Effects of the αSH3 peptide on JNK biological activities were then studied. […] In the pull-down experiments, the SH3 domains of IB1 and IB2 were subcloned using PCR into the pGEX-4T1 vector in frame with the GST (Pharmacia). The recombinant proteins were produced in E. coli. Purification was performed in native conditions using a glutathione-agarose column (Pharmacia). ^35S-labelled MKK7 was then used in classical pull-down experiments.

Data set [3] has as its target T2, SH3 domain of IB2 (MKK7 binding) (Homo sapiens, UniProt Q13387).
T2 construct: the SH3 domains of IB1 and IB2 were subcloned using PCR into the pGEX-4T1 vector in frame with the GST; GST (N); made in house; host or cells: E. coli
T2 sequence (Q13387 604-665 limits assumed): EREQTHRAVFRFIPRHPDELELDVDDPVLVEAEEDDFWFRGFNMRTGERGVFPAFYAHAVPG
The experiment in a line: Pull-down of 35S-labelled MKK7 on GST-SH3 domain of IB2. As to conditions: GST-SH3 domain of IB2, 35S-labelled MKK7 (FIG. 2). As to the method: as §1

`CSCC[C@H](NC(=O)CNC(=O)[C@@H](NC(=O)[C@H](CO)NC(=O)[C@@H](NC(=O)[C@H](CO)NC(=O)[C@H](CCCNC(=N)N)NC(=O)[C@H](CCCNC(=N)N)NC(=O)[C@H](CCCNC(=N)N)NC(=O)[C@H](CCC(N)=O)NC(=O)[C@H](CCCNC(=N)N)NC(=O)[C@H](CCCNC(=N)N)NC(=O)[C@H](CCCCN)NC(=O)[C@H](CCCCN)NC(=O)[C@@H](N)CCCNC(=N)N)C(C)C)C(C)C)C(=O)N1CCC[C@H]1C(=O)N1CCC[C@H]1C(=O)N[C@@H](CO)C(=O)N1CCC[C@H]1C(=O)N[C@@H](CCCNC(=N)N)C(=O)N1CCC[C@H]1C(=O)O` [TAT-αSH3] (H-RKKRRQRRRSVSVGMPPSPRP-OH): the “toxicity on developing neurons (residual necrotic bodies)” value in data set [1] is recorded as “lacked residual necrotic bodies; also recorded: not toxic”. For “αSH3: consensus SH3 binding peptide, 12 aa, SVSVGMPPSP RP (SVSVGMPPSPRP)”, the “blocking of the binding of MKK7 to IB1” value in data set [2] is on record as “efficiently blocks”. Moreover, the “blocking of the binding of MKK7 to IB2” value in data set [3] was “efficiently blocks”.

Source of the values: US7943574B2, “Cell-permeable peptide inhibitors of the JNK signal transduction pathway” (Xigen SA, priority 2002, dated 2011).
